From patent US20260374820 (published 2026)
Bridges are numbered along the chain shown (N, C = ends). Where no end group is shown, it is not given here.

T1: human MuSK (human, UniProt O15146)
T1 chain: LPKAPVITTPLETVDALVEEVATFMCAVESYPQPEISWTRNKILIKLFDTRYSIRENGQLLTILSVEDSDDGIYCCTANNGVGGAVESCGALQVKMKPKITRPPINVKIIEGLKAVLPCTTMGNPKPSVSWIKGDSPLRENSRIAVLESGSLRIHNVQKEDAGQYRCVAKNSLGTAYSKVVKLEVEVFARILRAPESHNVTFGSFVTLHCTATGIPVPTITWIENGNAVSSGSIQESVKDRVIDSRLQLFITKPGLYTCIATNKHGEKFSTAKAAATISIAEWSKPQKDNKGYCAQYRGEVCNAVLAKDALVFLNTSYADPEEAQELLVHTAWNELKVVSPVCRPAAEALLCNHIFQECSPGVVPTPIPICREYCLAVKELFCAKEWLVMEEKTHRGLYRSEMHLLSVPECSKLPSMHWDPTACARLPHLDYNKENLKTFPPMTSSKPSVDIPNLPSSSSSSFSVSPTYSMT

T2: mouse MuSK (mouse, UniProt Q61006)
T2 chain: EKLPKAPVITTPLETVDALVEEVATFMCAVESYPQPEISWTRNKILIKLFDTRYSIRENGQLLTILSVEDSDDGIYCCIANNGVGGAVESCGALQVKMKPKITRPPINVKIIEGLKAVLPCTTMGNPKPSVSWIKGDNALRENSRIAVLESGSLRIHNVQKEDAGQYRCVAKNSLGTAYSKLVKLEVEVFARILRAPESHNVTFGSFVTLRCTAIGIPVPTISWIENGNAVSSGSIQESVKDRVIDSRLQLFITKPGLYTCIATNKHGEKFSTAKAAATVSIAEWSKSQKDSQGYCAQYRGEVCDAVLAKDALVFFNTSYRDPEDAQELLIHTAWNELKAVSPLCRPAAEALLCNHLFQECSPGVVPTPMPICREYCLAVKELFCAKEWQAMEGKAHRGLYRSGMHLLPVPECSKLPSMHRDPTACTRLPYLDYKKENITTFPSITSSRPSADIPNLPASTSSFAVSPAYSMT

T3: rat MuSK (rat, UniProt Q62838)
T3 chain: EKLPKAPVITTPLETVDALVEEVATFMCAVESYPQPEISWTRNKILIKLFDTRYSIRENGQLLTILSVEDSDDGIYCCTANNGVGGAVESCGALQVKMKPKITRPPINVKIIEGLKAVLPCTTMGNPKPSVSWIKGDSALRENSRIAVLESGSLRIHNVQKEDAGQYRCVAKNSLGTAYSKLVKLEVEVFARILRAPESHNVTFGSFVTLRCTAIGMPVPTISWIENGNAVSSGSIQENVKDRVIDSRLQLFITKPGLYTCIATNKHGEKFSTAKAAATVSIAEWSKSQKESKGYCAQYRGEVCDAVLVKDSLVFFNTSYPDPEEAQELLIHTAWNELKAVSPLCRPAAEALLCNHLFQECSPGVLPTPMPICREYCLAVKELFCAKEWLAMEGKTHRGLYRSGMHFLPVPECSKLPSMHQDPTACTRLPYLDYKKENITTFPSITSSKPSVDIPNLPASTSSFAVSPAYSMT


Biological target: T1, human MuSK
Experiment: SPR

| Binder | Kd [nM] |
| --- | --- |
| MuSK7-pal (macrocyclic homodimer with palmitoyl group) chain 1: YPSYHTNVVASLKRC chain 2: YPSYHTNVVASLKRC | 0.9 |

Biological target: T1, human MuSK
Experiment: SPR
Remark: another data set of the same source

| Binder | Kd [nM] |
| --- | --- |
| YLPEFSWPESFVLFLRQRQRQLGRGAE (not fully specified (bridges); also: thioether macrocycle stated, places not given here) [MuSK1] | 2.2 |
| {CH2CO}-YFPTNVVSLLKSC (thioether N-13 (inferred); not fully specified (C-terminus)) [MuSK4] | 250 |
| YLPEFSWPESFVLFLRQRQRQLGRGAE (also: name suffix Ac, meaning not given here) [MuSK1Ac] | 1.6 |
| {CH2CO}-YPSYHTNVVASLKRC (thioether N-15 (inferred); not fully specified (C-terminus)) [MuSK7] | 160 |

Biological target: T2, mouse MuSK
Experiment: SPR

| Binder | Kd [nM] |
| --- | --- |
| MuSK7-pal (macrocyclic homodimer with palmitoyl group) chain 1: YPSYHTNVVASLKRC chain 2: YPSYHTNVVASLKRC | 8.8 |

Biological target: T1, human MuSK
Experiment: SPR
Remark: another data set of the same source

| Binder | Kd [nM] |
| --- | --- |
| MuSK1Ac PEG11 dimer (protein, also: homodimer via PEG11 linker, attachment not given here, name suffix Ac, meaning not given here) chain 1: YLPEFSWPESFVLFLRQRQRQLGRGAE chain 2: YLPEFSWPESFVLFLRQRQRQLGRGAE | 1.5 |
| MuSK9 PEG3 dimer (not fully specified (N-terminus, C-terminus, bridges); cysteine pairing not given here; also: homodimer via PEG3 linker, attachment not given here) chain 1: YWYLQPGYVNIVTSYHC chain 2: YWYLQPGYVNIVTSYHC | 2.1 |
| MuSK1Ac Term PEG3 dimer (protein, also: homodimer via terminal PEG3 linker, terminus not given here, name suffix Ac, meaning not given here) chain 1: YLPEFSWPESFVLFLRQRQRQLGRGAE chain 2: YLPEFSWPESFVLFLRQRQRQLGRGAE | 6 |
| MuSK1Ac PEG3 dimer (protein, also: homodimer via PEG3 linker, attachment not given here, name suffix Ac, meaning not given here) chain 1: YLPEFSWPESFVLFLRQRQRQLGRGAE chain 2: YLPEFSWPESFVLFLRQRQRQLGRGAE | 4.4 |
| MuSK4 PEG3 dimer (not fully specified (N-terminus, C-terminus, bridges); cysteine pairing not given here; also: homodimer via PEG3 linker, attachment not given here) chain 1: YFPTNVVSLLKSC chain 2: YFPTNVVSLLKSC | 6.8 |
| MuSK4 PEG11 dimer (not fully specified (N-terminus, C-terminus, bridges); cysteine pairing not given here; also: homodimer via Bis-Mal-dPEG11 linker, attachment not given here) chain 1: YFPTNVVSLLKSC chain 2: YFPTNVVSLLKSC | 6.9 |
| MuSK1Ac Term PEG11 dimer (protein, also: homodimer via terminal PEG11 linker, terminus not given here, name suffix Ac, meaning not given here) chain 1: YLPEFSWPESFVLFLRQRQRQLGRGAE chain 2: YLPEFSWPESFVLFLRQRQRQLGRGAE | 3.6 |
| MuSK9 PEG11 dimer (not fully specified (N-terminus, C-terminus, bridges); cysteine pairing not given here; also: homodimer via Bis-Mal-dPEG11 linker, attachment not given here) chain 1: YWYLQPGYVNIVTSYHC chain 2: YWYLQPGYVNIVTSYHC | 3.9 |
| MuSK7 PEG11 dimer (not fully specified (N-terminus, C-terminus, bridges); cysteine pairing not given here; also: homodimer via Bis-Mal-dPEG11 linker, attachment not given here) chain 1: YPSYHTNVVASLKRC chain 2: YPSYHTNVVASLKRC | 1.3 |
| MuSK7 PEG3 dimer (not fully specified (N-terminus, C-terminus, bridges); cysteine pairing not given here; also: homodimer via PEG3 linker, attachment not given here) chain 1: YPSYHTNVVASLKRC chain 2: YPSYHTNVVASLKRC | 0.62 |

Biological target: T3, rat MuSK
Experiment: SPR

| Binder | Kd [nM] |
| --- | --- |
| MuSK7-pal (macrocyclic homodimer with palmitoyl group) chain 1: YPSYHTNVVASLKRC chain 2: YPSYHTNVVASLKRC | 2 |
